Data from paper PMC6862599, “Molecular Cloning and Exploration of the Biochemical and Functional Analysis of Recombinant Glucose-6-Phosphate Dehydrogenase from Gluconoacetobacter diazotrophicus PAL5” (International Journal of Molecular Sciences, 2019).

Key:
[1] = biological target: glucose-6-phosphate dehydrogenase (G6PD) from Gluconacetobacter diazotrophicus PAL5 (Gluconacetobacter diazotrophicus PAL5); test: SEC; Sephacryl 200 (16/60) gel filtration column, 100 mM Tris-HCl pH 7.35, 0.01 M MgCl2, 0.3 mL/min, AKTA pure FPLC; calibrated with Bio-Rad gel filtration standard; oligomeric state of the native protein
purified protein [2] = substrate: O=P(O)(O)OC[C@H]1OC(O)[C@H](O)[C@@H](O)[C@@H]1O; test: purified protein; assay type: biochemical, Gluconacetobacter diazotrophicus; settings: NADP+ fixed at 72 µM (~10-fold Km), G6P 0 to 2 mM
purified protein [3] = substrate: NC(=O)c1ccc[n+]([C@@H]2O[C@H](COP(=O)(O)OP(=O)(O)OC[C@H]3O[C@@H](n4cnc5c(N)ncnc54)[C@H](OP(=O)(O)O)[C@@H]3O)[C@@H](O)[C@H]2O)c1; test: purified protein; assay type: biochemical, Gluconacetobacter diazotrophicus; settings: G6P fixed at 630 µM (~10-fold Km), NADP+ 0 to 250 µM

stoichiometry N [1]	Molecule	Km (purified protein [2])	Km (purified protein [3])
4	glucose-6-phosphate dehydrogenase (G6PD) from Gluconacetobacter diazotrophicus PAL5 (enzyme)	–	–
–	G6PD from GDI (Gluconacetobacter diazotrophicus PA1 5) (protein, full-length, N-terminal His6 tag removed by TEV protease, E. coli BL21(DE3)pLysS, 510 residues (ORF 1530 bp), 56,483 Da monomer, homotetramer 220 kDa) MDGIVASASSEIQGAGLQPRRAPPCTFVVFGGGGDLTKRLLVPAIYNLACAGLLDDGFSIVAVDWAELSDDILRAQFHEALQDFVAKRGTAAAVLRDDIWRWLNTRVSYLRGSFEDPATFERLGARIGSGNAVFYLAVAARFFGTIVDRLGESHLTDEVGETYRRVIVEKPFGHDLNSARELNIRLLRTLRERQIYRIDHYLGKETVQNIMALRFSNGFFEPLWNRQNIDHVQITAAETVGVEKRGRFYEGTGALRDMVPNHLMQLLAMTAMEAPVSFDADAVRDEKSKVLKAIHCTGPEDVVRGQYGGGVLGGTPVRGYRDEPDVAPASRTETYVAMKLAIDNWRWAGVPFYLRTGKRLAVRKTEIAIHFRRAPYALFRDTPVDRLTPNIMTIHIQPTEGVTLQFGAKIPGPTVRLGGVRMKFDYSEWFSEGPSTGYETLIYDCLTGDATLFQRADNIEAGWRAVQPALDWGERTEAAPLCPYAAGSAGPIEADALLARDGRQWQDLAE	63 µM	7.2 µM
